Assay results taken from publication PMC7160566.

B1: LexA_(DBDwt)-SehB-WT [Salmonella enterica serotype Typhimurium] / itself (parent)
chain: MRTHRQMDATSAKKIVDTFSDAVKTVPLMGEDRNDNEYRRALALVEFLVDHDDLENPLFELLCARISEYEKHAPEFKALNQHLEKTPPGVSVLRTLMDQYGLKAADLANELGSKSNVSNILNGRRALTVNHIKALTQRFKLPADAFIE
B2: LexA_(DBDwt)-SehB-WT [Salmonella enterica serotype Typhimurium] / LexA_(DBDmut)-SehA [Salmonella enterica serotype Typhimurium] (parent)
chain 1: B1 chain
chain 2: MHVISRKPFNEAMLMYPNHELALTELLNVLEKKTFTQPEEMKRYIPSLDNFKYRDKWWVIDVSGNSLRLISYIDFRLHKIFVKHIVSHAEYDKLTAYYRGNKE

Variants of: B1
Test: LexA-based genetic system for homodimerization (sulA-lacZ reporter, E. coli SU101)
Conditions: with itself; LB broth at 37°C to an OD600 nm of 1.0; 1 mM IPTG; parent: 130; read off a plot
chain 1 L58A was tested, and the response was 650 U/mg. With chain 1 L127A the response was 170 U/mg. In the case of chain 1 F146A, the response is reported as 110 U/mg. Variant chain 1 L135A has a response of 130 U/mg. Variant chain 1 S113A has a response of 110 U/mg. Variant chain 1 L48A has a response of 770 U/mg. Variant chain 1 Y38A has a response of 600 U/mg. With chain 1 I66A the response was 680 U/mg.

Variants of: B2
Test: LexA-based genetic system for heterodimerization (sulA-lacZ reporter, E. coli SU202)
Conditions: with LexA_(DBDmut)-SehA [Salmonella enterica serotype Typhimurium]; LB broth at 37°C to an OD600 nm of 1.0; 1 mM IPTG; parent: 750; read off a plot
chain 1 I66A was tested, and the response was 630 U/mg. Variant chain 1 L48A has a response of 940 U/mg. For chain 1 F146A, the response was 780 U/mg. chain 1 Y38A showed a response of 1100 U/mg. chain 1 L135A showed a response of 720 U/mg. With chain 1 L58A the response was 820 U/mg. Variant chain 1 L127A has a response of 770 U/mg. chain 1 S113A showed a response of 760 U/mg.
